Laboratory results: patent US7482138 (TRUSTEES OF COLUMBIA UNIVERSITY IN THE CITY OF NEW YORK, dated 2009)

Biological target: Rac1V12, pre-loaded with [γ-32P] GTP (UniProt P63000 1-192)
Test: overlay assay, immobilised Myc-tagged kinase probed with [γ-32P] GTP-loaded GTPase
Excerpt: PAK4 and PAK5 interact with activated Rac and Cdc42. 293 cells were transfected with equal amounts of expression vectors, encoding the following Myc-tagged proteins: wild type PAK4 (Myc-PAK4), wild type PAK5 (Myc-PAK5), or PAK5ΔGBD. After transient expression, the Myc-tagged proteins were immunoprecipitated from whole cell lysates using a mouse anti-Myc antibody and protein A sepharose. The immunocomplexes were separated by SDS-PAGE and transferred to a PVDF membrane. The membranes were then probed with purified RhoV14, Rac1V12 or Cdc42V12, as indicated. The GTPases were pre-loaded with [γ-^32P] GTP as described in the Materials and Methods. A portion of the lysate was used for Western blot analysis (WB) with an anti-Myc antibody to measure the amount of each transfected protein in the lysates.
The overlay assay is described in (27). Briefly, 293 cells were transfected with 10 µg of empty vector, MycPAK4, or Myc-PAK5. PAK4 and PAK5 were then immunopurified using anti-Myc antibody (9E10, Santa Cruz) and the immunopurified proteins were separated on SDS-PAGE and transferred to a PVDF membrane. The membrane was then washed and blocked with phosphate-buffered saline (PBS) containing 1% bovine serum albumin (BSA) and 100 mM dithiothreitol (DTT). Recombinant GTPases (2 µg) were pre-loaded with [γ-^32P] GTP and were incubated for 5 min with the PVDF membrane. […]

B1: Myc-tagged wild type PAK5 (human p21-activated kinase 5) (enzyme, not shown: small tags and cut ends)
chain: MFGKKKKKIEISGPSNFEHRVHTGFDPQEQKFTGLPQQWHSLLADTANRPKPMVDPSCITPIQLAPMKTIVRGNKPCKETSINGLLEDFDNISVTRSNSLRKESPPTPDQGASSHGPGHAEENGFITFSQYSSESDTTADYTTEKYREKSLYGDDLDPYYRGSHAAKQNGHVMKMKHGEAYYSEVKPLKSDFARFSADYHSHLDSLSKPSEYSDLKWEYQRASSSSPLDYSFQFTPSRTAGTSGCSKESLAYSESEWGPSLDDYDRRPKSSYLNQTSPQPTMRQRSRSGSGLQEPMMPFGASAFKTHPQGHSYNSYTYPRLSEPTMCIPKVDYDRAQMVLSPPLSGSDTYPRGPAKLPQSQSKSGYSSSSHQYPSGYHKATLYHHPSLQSSSQYISTASYLSSLSLSSSTYPPPSWGSSSDQQPSRVSHEQFRAALQLVVSPGDPREYLANFIKIGEGSTGIVCIATEKHTGKQVAVKKMDLRKQQRRELLFNEVVIMRDYHHDNVVDMYSSYLVGDELWVVMEFLEGGALTDIVTHTRMNEEQIATVCLSVLRALSYLHNQGVIHRDIKSDSILLTSDGRIKLSDFGFCAQVSKEVPKRKSLVGTPYWMAPEVISRLPYGTEVDIWSLGIMVIEMIDGEPPYFNEPPLQAMRRIRDSLPPRVKDLHKVSSVLRGFLDLMLVREPSQRATAQELLGHPFLKLAGPPSCIVPLMRQYRHH
notes: also called Myc-PAK5
  binding result: binds
